Test results taken from US20130287781A1 (GlaxoSmithKline, published 2013).
Where two headings read alike, the source gives them in different places.

T1: peptide 6 (biotin-SGSG-TPSPVLPDIVMEAPLN) (human, N-terminal biotin)
T1 peptide: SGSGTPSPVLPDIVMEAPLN

T2: peptide 7 (biotin-SGSG-VLPDIVMEAPLNSAVP) (human, N-terminal biotin)
T2 peptide: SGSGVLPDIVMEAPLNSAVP

B1: H28L16 (antibody, human IgG1, kappa)
heavy: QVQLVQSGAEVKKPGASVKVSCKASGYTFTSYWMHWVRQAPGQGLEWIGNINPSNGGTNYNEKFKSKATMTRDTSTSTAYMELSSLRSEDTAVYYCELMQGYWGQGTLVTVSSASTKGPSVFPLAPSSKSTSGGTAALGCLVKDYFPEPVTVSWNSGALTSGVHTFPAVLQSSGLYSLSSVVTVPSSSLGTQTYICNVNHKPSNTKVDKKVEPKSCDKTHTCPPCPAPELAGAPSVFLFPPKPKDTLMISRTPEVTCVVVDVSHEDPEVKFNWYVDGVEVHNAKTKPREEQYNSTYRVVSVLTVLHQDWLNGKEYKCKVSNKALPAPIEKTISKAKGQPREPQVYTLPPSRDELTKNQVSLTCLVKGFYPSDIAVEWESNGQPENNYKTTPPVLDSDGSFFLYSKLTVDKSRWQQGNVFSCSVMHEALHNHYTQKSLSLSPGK
light: DIVMTQSPLSNPVTLGQPVSISCRSSKSLLYKDGKTYLNWFLQRPGQSPQLLIYLMSTRASGVPDRFSGGGSGTDFTLKISRVEAEDVGVYYCQQLVEYPLTFGQGTKLEIKRTVAAPSVFIFPPSDEQLKSGTASVVCLLNNFYPREAKVQWKVDNALQSGNSQESVTEQDSKDSTYSLSSTLTLSKADYEKHKVYACEVTHQGLSSPVTKSFNRGEC
notes: IgG1 (L235A, G237A) / kappa; CAMPATH-1H signal (1-19) left out; also called H28FL L16FL; NOGO H28L16
B2: HcLc (chimera of 2A10: murine 2A10 VH and VL with human IgG constant regions) (antibody, V domains shown)
VH: QVQLQQPGTELVKPGASVKLSCKASGYTFTSYWMHWVKQRPGQGLEWIGNINPSNGGTNYNEKFKSKATLTVDKSSSTAYMQLSSLTSEDSAVYYCELGQGYWGQGTLVTVSS
VL: DIVITQDELSNPVTSGESVSISCRSSKSLLYKDGKTYLNWFLQRPGQSPQLLIYLMSTRASGVSDRFSGSGSGTDFTLEISRVKAEDVGVYYCQQLVEYPLTFGAGTKLELKR
notes: also called chimeric antibody; chimeric form of the parental antibody

Assays:
[1] = target: T3, Cynomolgus monkey NOGO (A56) plus GST tag (cynomolgus monkey); assay: SPR (Biacore), reverse format: antibody captured by Protein A
T3 construct: also called cynomolgus Nogo-A; GST-NOGO-A56 from cynomolgus
T3 sequence (chain, as listed by the source limits assumed): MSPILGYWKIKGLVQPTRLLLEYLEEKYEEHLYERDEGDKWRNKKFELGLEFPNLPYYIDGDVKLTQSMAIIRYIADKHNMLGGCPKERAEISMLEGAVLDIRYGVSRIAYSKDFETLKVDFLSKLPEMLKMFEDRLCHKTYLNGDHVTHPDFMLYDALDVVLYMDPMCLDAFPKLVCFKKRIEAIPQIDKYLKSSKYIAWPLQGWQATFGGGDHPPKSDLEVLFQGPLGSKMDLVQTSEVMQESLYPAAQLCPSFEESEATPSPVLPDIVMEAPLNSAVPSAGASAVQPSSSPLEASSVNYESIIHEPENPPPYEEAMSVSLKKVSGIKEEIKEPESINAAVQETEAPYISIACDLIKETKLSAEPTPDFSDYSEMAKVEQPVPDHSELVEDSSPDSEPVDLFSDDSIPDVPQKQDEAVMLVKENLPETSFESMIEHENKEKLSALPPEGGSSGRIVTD
From the text: (§1) Protein A was immobilised on the surface at about 4000RUs and anti-Nogo-A antibodies were captured at approximately 300-400RUs. […] All the runs were done in duplicates. The values show the mean and standard deviation (in brackets) of 1-3 independent runs with each run done in duplicate and each data set analysed independently prior to calculation of the mean and standard deviation.

[2] = target: T4, Rat NOGO (A56) plus GST tag (rat); assay: as above
T4 construct: also called GST-NOGO-A56 from rat
T4 sequence (chain, as listed by the source limits assumed): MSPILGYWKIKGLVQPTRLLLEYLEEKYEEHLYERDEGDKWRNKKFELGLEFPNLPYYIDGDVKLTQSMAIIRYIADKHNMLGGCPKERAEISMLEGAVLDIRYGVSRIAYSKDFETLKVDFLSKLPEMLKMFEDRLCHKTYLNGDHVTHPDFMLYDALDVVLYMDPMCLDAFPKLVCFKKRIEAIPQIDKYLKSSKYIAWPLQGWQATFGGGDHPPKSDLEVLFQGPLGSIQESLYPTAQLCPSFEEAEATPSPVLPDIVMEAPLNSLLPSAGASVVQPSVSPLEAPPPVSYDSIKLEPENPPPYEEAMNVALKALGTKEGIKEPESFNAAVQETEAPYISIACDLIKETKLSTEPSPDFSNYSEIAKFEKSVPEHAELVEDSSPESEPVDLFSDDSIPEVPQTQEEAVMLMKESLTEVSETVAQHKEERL
From the text: as §1

GST-human NOGO-A56 [3] = target: T5, GST-human NOGO-A56 (human); assay: SPR (Biacore), GST-human NOGO-A56 amine-coupled to CM5, antibody flowed over, 25 C
T5 construct: Expressed in E. coli BL21 from pGEX-6P1 and purified on glutathione-sepharose; the GST tag is part of the protein in the assays; also called GST-Nogo-A 5+6; GST Nogo-A 5 + 6
T5 sequence (chain, as listed by the source limits assumed): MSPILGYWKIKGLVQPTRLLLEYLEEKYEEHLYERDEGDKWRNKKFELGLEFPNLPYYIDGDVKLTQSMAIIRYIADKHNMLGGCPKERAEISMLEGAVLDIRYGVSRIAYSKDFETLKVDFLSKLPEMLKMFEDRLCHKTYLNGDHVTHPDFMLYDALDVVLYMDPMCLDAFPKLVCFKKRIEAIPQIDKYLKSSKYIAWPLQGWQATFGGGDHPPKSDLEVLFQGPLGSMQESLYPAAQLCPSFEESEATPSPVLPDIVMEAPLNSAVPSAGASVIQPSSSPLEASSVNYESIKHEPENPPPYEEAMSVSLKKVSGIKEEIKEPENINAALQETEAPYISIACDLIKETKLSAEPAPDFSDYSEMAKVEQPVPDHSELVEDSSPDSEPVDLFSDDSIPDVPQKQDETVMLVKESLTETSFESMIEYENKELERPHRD

GST-human NOGO-A56 [4] = target: T5, GST-human NOGO-A56; assay: as above; remark: listed apart in the source
Method: (§2) GST-human NOGO-A56 was immobilised to a CM5 chip by primary amine coupling using the Biacore Wizard program designed for targeted immobilisation levels. The CM5 sensor surface was activated by passing a solution of 50 mM N-hydroxy-succinimide (NHS) and 200 mM N-ethyl-N′-dimethylaminopropyl carbonide (EDC). Then GST-human NOGO-A56 in sodium acetate buffer, pH5.0 or pH 4.5, was passed over the chip and immobilised. After immobilisation was complete any still activated esters were blocked by an injection of 1M ethanolamine hydrochloride, pH8.5.
The anti-NOGO mAbs were diluted down in HBS-EP (10 mM HEPES, pH 7.4, 150 mM NaCl, 3 mM EDTA, and 0.005% P-20 surfactant) for the BIAcore 3000 or HBS-EP+ (10 mM HEPES, pH 7.4, 150 mM NaCl, 3 mM EDTA, and 0.05% P-20 surfactant) in the case of the T100 and binding studies were carried out at range of defined antibody concentrations. All runs were referenced against a blanked sensor surface (one that had been activated and blocked as described earlier but had no addition of ligand). Analysis of binding was carried out using the BIAevaluation kinetic analysis software version 4.1 for the BIAcore 3000 and T100 kinetic analysis software version 1.0. […] Unless otherwise stated, the BIAcore experiments were performed at 25° C.

Human C1q (Sigma, C0660) = target: T6, Human C1q (Sigma, C0660) (human, UniProt P02745 23-245; P02746 28-253; P02747 29-245); assay: C1q ELISA: antibody coated at 1 mcg/ml, human C1q added, anti-human C1q-HRP, Abs490
T6 construct: Bought protein
T6 sequence (P02745 23-245 limits assumed, chain 1 of 3): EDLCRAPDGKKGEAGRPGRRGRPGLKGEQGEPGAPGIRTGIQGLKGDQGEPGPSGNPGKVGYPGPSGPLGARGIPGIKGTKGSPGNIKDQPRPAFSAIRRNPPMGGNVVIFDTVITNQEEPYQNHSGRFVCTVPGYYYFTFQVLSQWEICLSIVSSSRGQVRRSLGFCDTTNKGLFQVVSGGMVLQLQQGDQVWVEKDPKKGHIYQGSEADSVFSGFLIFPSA
T6 sequence (P02746 28-253 limits assumed, chain 2 of 3): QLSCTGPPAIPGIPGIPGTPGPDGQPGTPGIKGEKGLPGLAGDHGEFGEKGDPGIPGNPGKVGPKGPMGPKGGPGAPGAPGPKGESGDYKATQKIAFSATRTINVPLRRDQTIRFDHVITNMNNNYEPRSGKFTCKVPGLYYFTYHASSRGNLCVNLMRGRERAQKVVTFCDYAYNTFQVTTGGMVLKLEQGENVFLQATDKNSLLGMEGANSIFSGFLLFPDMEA
T6 sequence (P02747 29-245 limits assumed, chain 3 of 3): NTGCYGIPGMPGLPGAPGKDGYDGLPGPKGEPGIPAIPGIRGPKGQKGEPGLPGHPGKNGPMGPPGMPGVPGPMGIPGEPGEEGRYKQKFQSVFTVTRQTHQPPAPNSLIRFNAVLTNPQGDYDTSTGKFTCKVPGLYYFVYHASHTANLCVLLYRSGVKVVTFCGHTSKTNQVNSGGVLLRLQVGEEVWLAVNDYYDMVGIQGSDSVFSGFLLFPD
From the text: ELISA plates were coated with a fixed concentration of the purified humanised and control antibodies (1 mcg/ml).

[5] = target: T7, Marmoset NOGO (A56) plus GST tag (marmoset); assay: SPR (Biacore), reverse format: antibody captured by Protein A; end of the range tied to marmoset by Table 19
T7 construct: also called GST-NOGO-A56 from marmoset
T7 sequence (chain, as listed by the source limits assumed): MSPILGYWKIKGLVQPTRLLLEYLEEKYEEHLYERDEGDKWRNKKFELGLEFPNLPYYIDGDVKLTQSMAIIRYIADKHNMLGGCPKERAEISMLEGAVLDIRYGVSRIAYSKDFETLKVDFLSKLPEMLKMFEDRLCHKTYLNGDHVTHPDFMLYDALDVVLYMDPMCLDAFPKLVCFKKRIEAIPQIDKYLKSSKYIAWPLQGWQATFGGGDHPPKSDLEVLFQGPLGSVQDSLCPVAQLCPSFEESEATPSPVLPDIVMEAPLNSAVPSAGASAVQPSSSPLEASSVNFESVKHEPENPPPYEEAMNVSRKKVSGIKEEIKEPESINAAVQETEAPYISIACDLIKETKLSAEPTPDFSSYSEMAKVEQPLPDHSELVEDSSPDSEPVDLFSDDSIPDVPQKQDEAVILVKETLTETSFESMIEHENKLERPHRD
From the text: as §1

[6] = target: T8, Squirrel monkey NOGO (A56) plus GST tag (squirrel monkey); assay: SPR (Biacore), reverse format: antibody captured by Protein A; end of the range tied to squirrel monkey by Table 19
T8 construct: also called GST-NOGO-A56 from squirrel monkey
T8 sequence (chain, as listed by the source limits assumed): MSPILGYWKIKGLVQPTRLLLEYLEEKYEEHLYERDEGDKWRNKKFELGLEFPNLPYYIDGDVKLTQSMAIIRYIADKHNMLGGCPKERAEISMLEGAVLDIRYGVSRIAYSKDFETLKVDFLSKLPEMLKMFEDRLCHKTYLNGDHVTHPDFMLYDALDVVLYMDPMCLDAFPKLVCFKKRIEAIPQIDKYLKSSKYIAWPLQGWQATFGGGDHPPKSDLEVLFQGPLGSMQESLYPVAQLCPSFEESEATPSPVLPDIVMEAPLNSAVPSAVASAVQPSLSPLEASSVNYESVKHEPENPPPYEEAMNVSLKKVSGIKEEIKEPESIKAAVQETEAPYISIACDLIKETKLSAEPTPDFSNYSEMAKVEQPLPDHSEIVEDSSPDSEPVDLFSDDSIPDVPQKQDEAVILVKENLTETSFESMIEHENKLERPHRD
From the text: as §1

GST-human NOGO-A56 [7] = target: T5, GST-human NOGO-A56; assay: SPR (Biacore T100), antigen amine-coupled to CM5, antibody 0.125-8 nM; mean of six runs in duplicate (SD in brackets)
From the text: In the first approach, the recombinant Nogo-A was coupled to the surface of the chip and anti-Nogo-A antibodies passed over this surface. In the second approach, Protein A was used to capture the antibody onto the surface of the chip over which the recombinant GST-human Nogo-A56 was passed.
The antigen was bound to the CM5 chip by primary amine coupling. […] The values show the mean and standard deviation (in brackets) of six independent runs carried out in duplicate. Each completed data set was analysed independently prior to the calculation of mean and standard deviation.

GST-human NOGO-A56 [8] = target: T5, GST-human NOGO-A56; assay: SPR (Biacore T100), reverse format: antibody captured by Protein A, GST-NOGO-A56 flowed over; mean
From the text: as §1

[9] = target: T3, Cynomolgus monkey NOGO (A56) plus GST …; assay: as above
From the text: as §1

[10] = target: T4, Rat NOGO (A56) plus GST tag; assay: as above
From the text: as §1

[11] = target: T7, Marmoset NOGO (A56) plus GST tag; assay: as above
From the text: as §1

[12] = target: T8, Squirrel monkey NOGO (A56) plus GST tag; assay: as above
From the text: as §1

GST-human NOGO-A56 [13] = target: T5, GST-human NOGO-A56; assay: competition ELISA on coated GST-Nogo-A 5+6; competitor 2A10 pre-mixed, bound 2A10 detected with anti-mouse IgG-HRP
GST-human NOGO-A56 [14] = target: T5, GST-human NOGO-A56; assay: as above; remark: listed apart in the source
From the text: Recombinant human Nogo-A (GST-Nogo-A 5+6) was coated to the plates. […] IC50 values were derived using Robosage.

GST-human NOGO-A56 [15] = target: T5, GST-human NOGO-A56; assay: SPR (Biacore T100), reverse format: antibody captured by Protein A, GST Nogo-A 5+6 0.125-8 nM flowed over; mean (SD in brackets)
From the text: Protein A was immobilised to approximately 4000RUs by primary amine and used to capture 200-300RUs of the sample antibodies. […] The values show the mean and standard deviation (in brackets) of three independent runs in duplicate. Each data set was independently analysed prior to the calculation of the mean and standard deviation.

[16] = target: T1, peptide 6 (biotin-SGSG-TPSPVLPDIVMEAPLN); assay: peptide ELISA: biotinylated 16-mer peptide on streptavidin, antibody at 5 ug/ml, kappa-chain peroxidase conjugate, Abs490
Method: (§3) Streptavidin at 5 μg/ml in sterile water was coated onto Nunc immunosorp plates (100 μl per well) at 37° C. overnight. The plates were rinsed 3 times with PBS containing 0.05% Tween (PBST) then blocked with 3% BSA in PBST at 4° C. overnight. The plates were washed 3 times with PBST. Peptides were then added to the wells at a concentration of approximately 10 μg/ml (diluted in 3% BSA in PBST) and incubated at room temperature for 1 hour. The plates were washed 3 times with PBST then incubated for 1 hour with anti-NOGO antibodies diluted to 5 μg/ml in 3% BSA in PBST. […] The plates were washed 3 times with PBST and then incubated with 100 μl OPD peroxidase substrate (Sigma) per well for 10 minutes. The colour reaction was stopped by the addition of 50 μl 3 molar H₂SO₄. Absorbance at 490 nm was measured using a plate reader.

[17] = target: T2, peptide 7 (biotin-SGSG-VLPDIVMEAPLNSAVP); assay: as above
Method: as §3

[18] = target: T3, Cynomolgus monkey NOGO (A56) plus GST …; assay: SPR (Biacore), both formats
From the text: (§4) Approximately 140-180RUs of the various Nogo-A orthologues were captured to the CM5 chip by primary amine coupling. […] The values show the mean and standard deviation (in brackets) of 1-2 independent runs carried out in duplicate with each data set independently analysed prior to calculation of the mean and standard deviation.
(§5) Protein A was immobilised on the surface at about 4000RUs and anti-Nogo-A antibodies were captured at approximately 300-400RUs. […] All the runs were done in duplicates.

[19] = target: T4, Rat NOGO (A56) plus GST tag; assay: SPR (Biacore), both formats
From the text: as §4, §5

GST-human NOGO-A56 [20] = target: T5, GST-human NOGO-A56; assay: SPR (Biacore) off-rate ranking on GST-human NOGO-A56 chip, one experiment
Method: as §2
The GST-human NOGO-A56 chip was prepared as for kinetic analysis. Cell supernatants where taken directly from transient transfections of CHO-K1 cells. These were passed directly over the sensor surface and the interaction measured. A mock transfected cell supernatant was used for double referencing to remove any artefacts due to the tissue culture media. All runs were referenced against a blanked sensor surface (one that had been activated and blocked as described earlier but had no addition of ligand). Analysis of binding was carried out using the BIAevaluation kinetic analysis software version 4.1.

GST-human NOGO-A56 [21] = target: T5, GST-human NOGO-A56; assay: SPR (Biacore) off-rate on NOGO chip, panel of H6FL CDR H3 variants with L13FL
GST-human NOGO-A56 [22] = target: T5, GST-human NOGO-A56; assay: direct ELISA, human NOGO-A (GST-human NOGO-A56) coated at 1 ug/ml, Abs490

| Binder | Kd (GST-human NOGO-A56 [3]) | koff (GST-human NOGO-A56 [3]) | kon (GST-human NOGO-A56 [3]) | Kd (GST-human NOGO-A56 [4]) | koff (GST-human NOGO-A56 [4]) | kon (GST-human NOGO-A56 [4]) | Kd (GST-human NOGO-A56 [7]) | Kd (GST-human NOGO-A56 [8]) | Kd [9] | Kd [10] | Kd [11] | Kd [12] | Kd (GST-human NOGO-A56 [15]) | also measured |
| --- | --- | --- | --- | --- | --- | --- | --- | --- | --- | --- | --- | --- | --- | --- |
| B1 | 0.61 nM | 0.00264 s⁻¹ | 4.33e+06 M⁻¹ s⁻¹ | 0.28 nM | 0.00195 s⁻¹ | 6.89e+06 M⁻¹ s⁻¹ | 0.64 nM | 0.4 nM | 3.41 nM | 1.76 nM | 4.89 nM | 6.86 nM | 0.34 nM | fold lower affinity than for human Nogo-A [1]: 8.5 fold; fold lower affinity than for human Nogo-A [2]: ~4 fold; binding result (Human C1q (Sigma, C0660)): binds; fold lower affinity than for human Nogo-A [5]: 12 fold; fold lower affinity than for human Nogo-A [6]: 17 fold; IC50 (read off the curve) (GST-human NOGO-A56 [13]): ~4 µg/mL; IC50 (read off the curve) (GST-human NOGO-A56 [14]): ~4 µg/mL; binding result [16]: binds; binding result [17]: binds |
| B2 | 1.18 nM | 0.00313 s⁻¹ | 2.66e+06 M⁻¹ s⁻¹ | 0.74 nM | 0.00233 s⁻¹ | 3.17e+06 M⁻¹ s⁻¹ | 1.86 nM | 0.54 nM | 4.66 nM | 2.01 nM | 4.51 nM | 7.45 nM | 0.41 nM | fold of the affinity for human Nogo-A [18]: ≤ 8.5 fold; fold of the affinity for human Nogo-A [19]: ≤ 4 fold; koff (GST-human NOGO-A56 [20]): 0.00266 s⁻¹; koff (GST-human NOGO-A56 [21]): 0.00558 s⁻¹; EC50 (read off the curve) (GST-human NOGO-A56 [22]): ~0.04 µg/mL |
